Target: the molecule itself
Experiment: cross-linking

B1: sigma-1 receptor cysteine 94 alanine / methionine 170 cysteine (C94A/M170C) double mutant (receptor, guinea pig, UniProt Q60492 1-223, looked up)
chain: MQWAVGRRWLWVALFLAAVAVLTQIVWLWLGTQNFVFQREEIAQLARQYAGLDHELAFSKLIVELRRLHPVHVLPDEELQWVFVNAGGWMGAMALLHASLSEYVLLFGTALGSPRHSGRYWAEISDTIISGTFHQWREGTTKSEVFYPGETVVHGPGEATAVEWGPNTWCVEYGRGVIPSTLGFALADTVFSTQDFLTLFYTLRVYARALQLELTTYLFGQDP
stoichiometry N: 2

Source: publication PMC3581363 (Biochemistry, 2013)
